In patent US20120219562A1 (AbbVie / Abbott, published 2012):

T1: human interleukin 12 (p70 heterodimer of p35 and p40) (human, UniProt P29459 23-219; P29460 23-328)
T1 construct: Recombinant human IL-12; also called hIL-12; IL-12
T1 sequence (looked up) 1: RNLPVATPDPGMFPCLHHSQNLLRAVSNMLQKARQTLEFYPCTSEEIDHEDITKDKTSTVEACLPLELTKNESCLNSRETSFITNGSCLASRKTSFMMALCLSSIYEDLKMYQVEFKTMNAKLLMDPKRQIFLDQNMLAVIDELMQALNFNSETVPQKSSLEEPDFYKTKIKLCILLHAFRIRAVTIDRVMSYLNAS
T1 sequence (looked up) 2: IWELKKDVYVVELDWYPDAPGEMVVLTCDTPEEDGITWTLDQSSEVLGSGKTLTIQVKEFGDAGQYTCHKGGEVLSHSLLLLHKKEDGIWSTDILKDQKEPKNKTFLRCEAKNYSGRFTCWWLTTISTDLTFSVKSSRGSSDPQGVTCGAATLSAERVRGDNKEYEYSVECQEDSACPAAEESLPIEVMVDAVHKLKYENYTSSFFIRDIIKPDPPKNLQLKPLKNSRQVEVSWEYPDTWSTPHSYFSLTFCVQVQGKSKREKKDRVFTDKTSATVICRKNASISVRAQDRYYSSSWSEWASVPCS


Target: T1, human interleukin 12 (p70 heterodimer …)
Experiment: SPR (BIAcore), off-rate

Row | koff [s⁻¹] | Binder
1 | 0.000286 | SEQ ID NO: 509 (Y61, S at L50) (antibody, V domains shown) VH: QVQLVQSGGGVVQPGRSLRLSCAASGFTFSSYGMHWVRQAPGKGLEWVAFIRYDGSNKYYADSVKGRFTISRDNSKNTLYLQMKSLRAEDTAVYYCKTHGSHDNWGQGTMVTVSS VL: SYVLTQPPSVSGTPGQRVTISCSGGRSNIGSNTVKWYQQLPGTAPKLLIYSNDQRPSGVPDRFSGSKSGTSASLAITGVQAEDEADYYCQSYDRGTHPALLFGTGTKVTVLG
2 | 0.00243 | SEQ ID NO: 512 (Y61, K at L50) (antibody, V domains shown) VH: QVQLVQSGGGVVQPGRSLRLSCAASGFTFSSYGMHWVRQAPGKGLEWVAFIRYDGSNKYYADSVKGRFTISRDNSKNTLYLQMKSLRAEDTAVYYCKTHGSHDNWGQGTMVTVSS VL: SYVLTQPPSVSGTPGQRVTISCSGGRSNIGSNTVKWYQQLPGTAPKLLIYKNDQRPSGVPDRFSGSKSGTSASLAITGVQAEDEADYYCQSYDRGTHPALLFGTGTKVTVLG
3 | 0.000467 | SEQ ID NO: 508 (Y61, C at L50) (antibody, V domains shown) VH: QVQLVQSGGGVVQPGRSLRLSCAASGFTFSSYGMHWVRQAPGKGLEWVAFIRYDGSNKYYADSVKGRFTISRDNSKNTLYLQMKSLRAEDTAVYYCKTHGSHDNWGQGTMVTVSS VL: SYVLTQPPSVSGTPGQRVTISCSGGRSNIGSNTVKWYQQLPGTAPKLLIYCNDQRPSGVPDRFSGSKSGTSASLAITGVQAEDEADYYCQSYDRGTHPALLFGTGTKVTVLG
4 | 0.000348 | SEQ ID NO: 506 (Y61, D at L50) (antibody, V domains shown) VH: QVQLVQSGGGVVQPGRSLRLSCAASGFTFSSYGMHWVRQAPGKGLEWVAFIRYDGSNKYYADSVKGRFTISRDNSKNTLYLQMKSLRAEDTAVYYCKTHGSHDNWGQGTMVTVSS VL: SYVLTQPPSVSGTPGQRVTISCSGGRSNIGSNTVKWYQQLPGTAPKLLIYDNDQRPSGVPDRFSGSKSGTSASLAITGVQAEDEADYYCQSYDRGTHPALLFGTGTKVTVLG
5 | 0.000761 | SEQ ID NO: 511 (Y61, H at L50) (antibody, V domains shown) VH: QVQLVQSGGGVVQPGRSLRLSCAASGFTFSSYGMHWVRQAPGKGLEWVAFIRYDGSNKYYADSVKGRFTISRDNSKNTLYLQMKSLRAEDTAVYYCKTHGSHDNWGQGTMVTVSS VL: SYVLTQPPSVSGTPGQRVTISCSGGRSNIGSNTVKWYQQLPGTAPKLLIYHNDQRPSGVPDRFSGSKSGTSASLAITGVQAEDEADYYCQSYDRGTHPALLFGTGTKVTVLG
6 | 0.000617 | SEQ ID NO: 507 (Y61, E at L50) (antibody, V domains shown) VH: QVQLVQSGGGVVQPGRSLRLSCAASGFTFSSYGMHWVRQAPGKGLEWVAFIRYDGSNKYYADSVKGRFTISRDNSKNTLYLQMKSLRAEDTAVYYCKTHGSHDNWGQGTMVTVSS VL: SYVLTQPPSVSGTPGQRVTISCSGGRSNIGSNTVKWYQQLPGTAPKLLIYENDQRPSGVPDRFSGSKSGTSASLAITGVQAEDEADYYCQSYDRGTHPALLFGTGTKVTVLG
7 | 0.000444 | SEQ ID NO: 513 (Y61, R at L50) (antibody, V domains shown) VH: QVQLVQSGGGVVQPGRSLRLSCAASGFTFSSYGMHWVRQAPGKGLEWVAFIRYDGSNKYYADSVKGRFTISRDNSKNTLYLQMKSLRAEDTAVYYCKTHGSHDNWGQGTMVTVSS VL: SYVLTQPPSVSGTPGQRVTISCSGGRSNIGSNTVKWYQQLPGTAPKLLIYRNDQRPSGVPDRFSGSKSGTSASLAITGVQAEDEADYYCQSYDRGTHPALLFGTGTKVTVLG

Target: T1, human interleukin 12 (p70 heterodimer …)
Experiment: SPR (BIAcore), off-rate
Remark: another data set of the same source

Row | koff [s⁻¹] | Binder
8 | 0.00381 | SEQ ID NO: 492 (Y61, C at L32) (antibody, V domains shown) VH: QVQLVQSGGGVVQPGRSLRLSCAASGFTFSSYGMHWVRQAPGKGLEWVAFIRYDGSNKYYADSVKGRFTISRDNSKNTLYLQMKSLRAEDTAVYYCKTHGSHDNWGQGTMVTVSS VL: SYVLTQPPSVSGTPGQRVTISCSGGRSNIGSNCVKWYQQLPGTAPKLLIYGNDQRPSGVPDRFSGSKSGTSASLAITGVQAEDEADYYCQSYDRGTHPALLFGTGTKVTVLG
9 | 0.000213 | SEQ ID NO: 494 (Y61, Y at L32) (antibody, V domains shown) VH: QVQLVQSGGGVVQPGRSLRLSCAASGFTFSSYGMHWVRQAPGKGLEWVAFIRYDGSNKYYADSVKGRFTISRDNSKNTLYLQMKSLRAEDTAVYYCKTHGSHDNWGQGTMVTVSS VL: SYVLTQPPSVSGTPGQRVTISCSGGRSNIGSNYVKWYQQLPGTAPKLLIYGNDQRPSGVPDRFSGSKSGTSASLAITGVQAEDEADYYCQSYDRGTHPALLFGTGTKVTVLG
10 | 0.00164 | SEQ ID NO: 502 (Y61, V at L32) (antibody, V domains shown) VH: QVQLVQSGGGVVQPGRSLRLSCAASGFTFSSYGMHWVRQAPGKGLEWVAFIRYDGSNKYYADSVKGRFTISRDNSKNTLYLQMKSLRAEDTAVYYCKTHGSHDNWGQGTMVTVSS VL: SYVLTQPPSVSGTPGQRVTISCSGGRSNIGSNVVKWYQQLPGTAPKLLIYGNDQRPSGVPDRFSGSKSGTSASLAITGVQAEDEADYYCQSYDRGTHPALLFGTGTKVTVLG
11 | 0.000424 | SEQ ID NO: 505 (Y61, P at L32) (antibody, V domains shown) VH: QVQLVQSGGGVVQPGRSLRLSCAASGFTFSSYGMHWVRQAPGKGLEWVAFIRYDGSNKYYADSVKGRFTISRDNSKNTLYLQMKSLRAEDTAVYYCKTHGSHDNWGQGTMVTVSS VL: SYVLTQPPSVSGTPGQRVTISCSGGRSNIGSNPVKWYQQLPGTAPKLLIYGNDQRPSGVPDRFSGSKSGTSASLAITGVQAEDEADYYCQSYDRGTHPALLFGTGTKVTVLG
12 | 0.00154 | SEQ ID NO: 504 (Y61, I at L32) (antibody, V domains shown) VH: QVQLVQSGGGVVQPGRSLRLSCAASGFTFSSYGMHWVRQAPGKGLEWVAFIRYDGSNKYYADSVKGRFTISRDNSKNTLYLQMKSLRAEDTAVYYCKTHGSHDNWGQGTMVTVSS VL: SYVLTQPPSVSGTPGQRVTISCSGGRSNIGSNIVKWYQQLPGTAPKLLIYGNDQRPSGVPDRFSGSKSGTSASLAITGVQAEDEADYYCQSYDRGTHPALLFGTGTKVTVLG
13 | 0.00191 | SEQ ID NO: 493 (Y61, S at L32) (antibody, V domains shown) VH: QVQLVQSGGGVVQPGRSLRLSCAASGFTFSSYGMHWVRQAPGKGLEWVAFIRYDGSNKYYADSVKGRFTISRDNSKNTLYLQMKSLRAEDTAVYYCKTHGSHDNWGQGTMVTVSS VL: SYVLTQPPSVSGTPGQRVTISCSGGRSNIGSNSVKWYQQLPGTAPKLLIYGNDQRPSGVPDRFSGSKSGTSASLAITGVQAEDEADYYCQSYDRGTHPALLFGTGTKVTVLG
14 | 0.0069 | SEQ ID NO: 497 (Y61, R at L32) (antibody, V domains shown) VH: QVQLVQSGGGVVQPGRSLRLSCAASGFTFSSYGMHWVRQAPGKGLEWVAFIRYDGSNKYYADSVKGRFTISRDNSKNTLYLQMKSLRAEDTAVYYCKTHGSHDNWGQGTMVTVSS VL: SYVLTQPPSVSGTPGQRVTISCSGGRSNIGSNRVKWYQQLPGTAPKLLIYGNDQRPSGVPDRFSGSKSGTSASLAITGVQAEDEADYYCQSYDRGTHPALLFGTGTKVTVLG
15 | 0.00247 | SEQ ID NO: 499 (Y61, Q at L32) (antibody, V domains shown) VH: QVQLVQSGGGVVQPGRSLRLSCAASGFTFSSYGMHWVRQAPGKGLEWVAFIRYDGSNKYYADSVKGRFTISRDNSKNTLYLQMKSLRAEDTAVYYCKTHGSHDNWGQGTMVTVSS VL: SYVLTQPPSVSGTPGQRVTISCSGGRSNIGSNQVKWYQQLPGTAPKLLIYGNDQRPSGVPDRFSGSKSGTSASLAITGVQAEDEADYYCQSYDRGTHPALLFGTGTKVTVLG
16 | 0.00026 | SEQ ID NO: 495 (Y61, H at L32) (antibody, V domains shown) VH: QVQLVQSGGGVVQPGRSLRLSCAASGFTFSSYGMHWVRQAPGKGLEWVAFIRYDGSNKYYADSVKGRFTISRDNSKNTLYLQMKSLRAEDTAVYYCKTHGSHDNWGQGTMVTVSS VL: SYVLTQPPSVSGTPGQRVTISCSGGRSNIGSNHVKWYQQLPGTAPKLLIYGNDQRPSGVPDRFSGSKSGTSASLAITGVQAEDEADYYCQSYDRGTHPALLFGTGTKVTVLG
17 | 0.00191 | SEQ ID NO: 501 (Y61, A at L32) (antibody, V domains shown) VH: QVQLVQSGGGVVQPGRSLRLSCAASGFTFSSYGMHWVRQAPGKGLEWVAFIRYDGSNKYYADSVKGRFTISRDNSKNTLYLQMKSLRAEDTAVYYCKTHGSHDNWGQGTMVTVSS VL: SYVLTQPPSVSGTPGQRVTISCSGGRSNIGSNAVKWYQQLPGTAPKLLIYGNDQRPSGVPDRFSGSKSGTSASLAITGVQAEDEADYYCQSYDRGTHPALLFGTGTKVTVLG
18 | 0.00197 | SEQ ID NO: 498 (Y61, N at L32) (antibody, V domains shown) VH: QVQLVQSGGGVVQPGRSLRLSCAASGFTFSSYGMHWVRQAPGKGLEWVAFIRYDGSNKYYADSVKGRFTISRDNSKNTLYLQMKSLRAEDTAVYYCKTHGSHDNWGQGTMVTVSS VL: SYVLTQPPSVSGTPGQRVTISCSGGRSNIGSNNVKWYQQLPGTAPKLLIYGNDQRPSGVPDRFSGSKSGTSASLAITGVQAEDEADYYCQSYDRGTHPALLFGTGTKVTVLG
19 | 0.00215 | SEQ ID NO: 503 (Y61, L at L32) (antibody, V domains shown) VH: QVQLVQSGGGVVQPGRSLRLSCAASGFTFSSYGMHWVRQAPGKGLEWVAFIRYDGSNKYYADSVKGRFTISRDNSKNTLYLQMKSLRAEDTAVYYCKTHGSHDNWGQGTMVTVSS VL: SYVLTQPPSVSGTPGQRVTISCSGGRSNIGSNLVKWYQQLPGTAPKLLIYGNDQRPSGVPDRFSGSKSGTSASLAITGVQAEDEADYYCQSYDRGTHPALLFGTGTKVTVLG
20 | 0.000318 | SEQ ID NO: 496 (Y61, K at L32) (antibody, V domains shown) VH: QVQLVQSGGGVVQPGRSLRLSCAASGFTFSSYGMHWVRQAPGKGLEWVAFIRYDGSNKYYADSVKGRFTISRDNSKNTLYLQMKSLRAEDTAVYYCKTHGSHDNWGQGTMVTVSS VL: SYVLTQPPSVSGTPGQRVTISCSGGRSNIGSNKVKWYQQLPGTAPKLLIYGNDQRPSGVPDRFSGSKSGTSASLAITGVQAEDEADYYCQSYDRGTHPALLFGTGTKVTVLG
